# Measurements from the supplement of paper PMC12042874.
# ± gives the uncertainty stated by the source.
# Assay: amyloid nucleation score (Sup35N fusion, yeast selection) (log enrichment); library NNK3; higher = more nucleation; inactive = no reads after selection
# Procedure, shortened: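 The nucleation score is the log enrichment of output over input reads, calculated with DiMSum and centred on the mode score of non-aggregating sequences. Sequences with under 100 input reads were excluded. Reads came from Illumina sequencing of plasmid inserts from psi-negative yeast expressing Sup35N fused to peptides of 20 random codons, induced 24 hours with 100 μM copper sulfate and grown 7 days at 30°C without adenine and uracil.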
row,Substance,amyloid nucleation score
1,GINHNGRVECNRFKMNY,inactive
2,FVLIIYLLACSEMLFVFKEV,inactive
3,MCPPVSGNG,inactive
4,IEFLFMYTWWAVLNSGSK,0.999 ± 0.2
5,ERRIKDLTECSNR,inactive
6,QKIVSPRSGGFASPRMRQKV,inactive
7,CVVVETLLNMRRSRY,inactive
8,SKTGLDMADMIKRGDCGEST,inactive
9,TKGNCSAHPRRL,-0.581 ± 1.4
10,MLCAL,inactive
11,YFKRCQGNEQFSRNRNANGA,inactive
12,GGWSARYTNCNLYYTEASGP,0.857 ± 0.18
13,EVYMFFSCPSSNHVWDSRYV,inactive
14,TERVCVCVTFVLW,1.23 ± 0.16
15,ITNVRSVRFLYSSTYYHIVL,1.83 ± 0.11
16,RGPFGLYSLDILLVSQVFRR,0.502 ± 0.23
17,HSIHSDNRVLWLFDWSLSSR,inactive
18,VCNQS,inactive
19,VALWGSWRRPWDAVAFDRTG,inactive
20,FKFALPHSNIGFTISSRFGC,0.478 ± 0.16
21,KRVRGLALTQIY,0.159 ± 0.45
22,KSMIAGVTMWLLCTVSLSYN,inactive
23,FFYNYSRSGLCYIIFSESPV,1.33 ± 0.095
24,TIFVVCIRIFVWFLCYGSDP,0.207 ± 0.23

row,Substance,amyloid nucleation score
1,LVNLCRIRRVLECVRRRHRS,inactive
2,YSANDLPVNAHGEILKVGLL,inactive
3,NLRFVTREWCKTYQLI,inactive
4,NDGFMDVVNTSGSNLCMARN,inactive
5,ILIGPSGFMYLDVSFFQFQR,0.856 ± 0.25
6,MYLVG,inactive
7,TMSIFDPVE,1.09 ± 0.11
8,RHEVRRKKSQ,inactive
9,NHGATLFECSYCNCSLAFR,2.83 ± 0.081
10,ILAHAHYVYVALARWPTYGY,-0.35 ± 0.98
11,ITGGTPCGITTVWQKGAMG,inactive
12,VFCLVYKKCLKSYCQYMVIG,inactive
13,HGSYLMRILR,inactive
14,LVFRIN,inactive
15,WRRLEGSHA,inactive
16,MVQNLQNRYGSWSCKFGFQR,inactive
17,RKVEG,inactive
18,LMSVLRFQTP,inactive
19,RAGDNIFWTIAKCTRNTHVM,inactive
20,MWVMGNDS,inactive
21,SMGTFNMVRLSGTWGMSAMY,0.757 ± 0.15
22,LSLKNFMSSFSSLWCGWSDD,0.689 ± 0.29
23,WNEAWWNNRLGLARMVVLLG,inactive
24,PDDSRRNPRFG,inactive

row,Substance,amyloid nucleation score
1,RMAIISSRIWFGFLAMQFVF,inactive
2,LLMFTFHYSPFS,0.483 ± 0.37
3,PSSSDGSMHLYIILQTLLFF,1.49 ± 0.11
4,RFVLQ,inactive
5,IHCSDVGALRMYVPSTGPFS,-0.213 ± 0.64
6,WSRSACMGEGNLDVFSVWLL,inactive
7,SLDFSSGDVKNLKCCNVLMK,inactive
8,NRLNIFIYSFNVAVVSI,2.31 ± 0.082
9,TTTCHLRIKSNMRLSQEWLG,1.17 ± 0.12
10,ISCGYSYGTRRFS,inactive
11,KRFGKMLLW,inactive
12,WYDGQRFCRELYNCPSAPGL,inactive
13,SYLQQLDLSRDGTVLLKSGI,inactive
14,TPLARFFTCPHIYYLSPGHS,inactive
15,SLLMYCRNTVSMSNNLSRHR,1.39 ± 0.11
16,NNCSRICM,inactive
17,AWHCLDYYRSGSVIDRRVGM,inactive
18,PGSLI,-0.219 ± 0.52
19,LGNSPVHST,inactive
20,LEESFSKNLSKSFYIQ,inactive
21,ERLIPLPHISVIS,inactive
22,IYRTPSADDLSRDAYIGFYR,inactive
23,MILLGKNSLDPEGKGVCHVW,inactive
24,PVSII,inactive

row,Substance,amyloid nucleation score
1,CVKVGDGCLHASIGAR,inactive
2,VHMNRSGSAALEFGMLWEYI,inactive
3,YMLTEFYLFPDRILRHRRTD,inactive
4,WASYDGPEKRRNHTRYYISM,inactive
5,SDFHCTQKRNMVWEEIA,inactive
6,HQKKMRFALR,inactive
7,RMINVSVR,inactive
8,WNFIVFGFYLDGRILFISYL,-0.755 ± 0.7
9,TWILFFVN,1.78 ± 0.062
10,LRGDGLMIVIVVWCIYGYLC,inactive
11,TCKVVCRFFHIRACMLGVIL,inactive
12,LLCGSCWFYTMGHVSPNKRI,0.862 ± 0.11
13,IALSLLKTAKIMY,inactive
14,IGTDWRARAMAALYI,inactive
15,EQVFRYIL,inactive
16,GSMTFNYTLEGLNYHNDTKE,inactive
17,LRGFMISSWDFFADGSDVRL,inactive
18,SRCNIFGRPSASIAR,inactive
19,YSFWIVFMRY,inactive
20,IVSYSGRNRDAHLKSS,inactive
21,IGNFRGL,inactive
22,FCFSSVEKNWLQRVMFLRVS,inactive
23,VVGNVTGY,inactive
24,YLVSLRLVYSNILEFVKRVC,inactive

row,Substance,amyloid nucleation score
1,PDRLFLDTGSTWFKYMMSCL,-1.12 ± 1.4
2,NDKLWQWMGNISVRCFFINV,inactive
3,YYQMRYCQWDAIQVENWVRR,inactive
4,NWIVGSWCKVLSVVEKEW,0.101 ± 0.62
5,LNQSDRCKVCWYWLGHT,inactive
6,FSFPCRTVAWFWYDFHFIGL,inactive
7,GKTNNLLSFFSKTPLTFSCL,inactive
8,YCFSFAISCNDMRLFFLVNV,inactive
9,TFLNFSVIGVTSLGTDRAYD,inactive
10,QFHYYVLMIRSVIPFIALWK,inactive
11,TFLVALSYFVSLGYGSSQSM,inactive
12,HFVKVE,inactive
13,QYLFCVVGGWIVRYLWPWML,inactive
14,SACSVIFTEYINVSLLLSST,0.251 ± 0.42
15,LITEGYAYFLNWVFRYISYW,inactive
16,CCCTNDMWTTGPNCS,-0.432 ± 0.76
17,SFLRTVNGGRFSSVCSL,inactive
18,SSTCTDL,inactive
19,CAYVENSCGTILVCALYCGS,inactive
20,YYLVDRWREFVGYRKKDCVA,inactive
21,YSEYMVTNRKVSAGHTARWD,inactive
22,CNIVSMFGCSGVMMACAAVV,inactive
23,GGCGGVKHAHYNTIEY,inactive
